Reference: patent US20190185537A1 (AstraZeneca / MedImmune, published 2019)
Read-outs that look alike come from different tables or passages of the source. Numbered stars: 1 amine (or outer) side, 2 acyl side, 3 side chain; on linkers, the order of the positions; unused ones are H or OH. Side chains are listed from the residue outwards. Ends that are not written are not given here. * marks the point of attachment. γGlu = O=C(O)[C@H](CCC(=O)[*:2])N[*:1]; Palmitoyl = CCCCCCCCCCCCCCCC(=O)*

T1: human glucose-dependent insulinotropic peptide (gastric inhibitory polypeptide) receptor (human, UniProt P48546 22-466)
T1 sequence (looked up): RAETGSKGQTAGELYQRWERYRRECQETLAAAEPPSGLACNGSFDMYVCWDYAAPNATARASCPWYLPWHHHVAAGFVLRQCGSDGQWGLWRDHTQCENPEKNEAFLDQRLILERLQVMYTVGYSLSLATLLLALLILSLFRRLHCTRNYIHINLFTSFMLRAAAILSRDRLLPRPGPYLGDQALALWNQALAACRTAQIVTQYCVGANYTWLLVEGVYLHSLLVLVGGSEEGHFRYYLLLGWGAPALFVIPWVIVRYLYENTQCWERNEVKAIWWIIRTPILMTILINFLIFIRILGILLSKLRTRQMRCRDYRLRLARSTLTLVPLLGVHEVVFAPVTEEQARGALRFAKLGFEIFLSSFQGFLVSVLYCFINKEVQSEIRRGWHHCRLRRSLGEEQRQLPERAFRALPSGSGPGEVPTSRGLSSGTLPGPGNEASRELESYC

T2: mouse GLP-1 receptor (mouse, UniProt O35659 22-463)
T2 sequence (looked up): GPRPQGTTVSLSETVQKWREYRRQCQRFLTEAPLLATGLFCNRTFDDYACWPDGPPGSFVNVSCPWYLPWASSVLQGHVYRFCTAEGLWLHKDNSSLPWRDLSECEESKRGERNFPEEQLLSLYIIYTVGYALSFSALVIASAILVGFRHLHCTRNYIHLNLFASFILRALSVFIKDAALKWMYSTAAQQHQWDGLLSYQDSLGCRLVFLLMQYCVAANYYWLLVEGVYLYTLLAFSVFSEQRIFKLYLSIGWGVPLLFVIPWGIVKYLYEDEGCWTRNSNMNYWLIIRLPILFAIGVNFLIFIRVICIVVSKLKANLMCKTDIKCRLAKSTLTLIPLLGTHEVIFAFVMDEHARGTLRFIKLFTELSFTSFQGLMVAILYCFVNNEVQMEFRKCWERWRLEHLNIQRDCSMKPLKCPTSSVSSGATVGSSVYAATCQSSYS

T3: rat GLP-1 receptor (rat, UniProt P32301 22-463)
T3 sequence (looked up): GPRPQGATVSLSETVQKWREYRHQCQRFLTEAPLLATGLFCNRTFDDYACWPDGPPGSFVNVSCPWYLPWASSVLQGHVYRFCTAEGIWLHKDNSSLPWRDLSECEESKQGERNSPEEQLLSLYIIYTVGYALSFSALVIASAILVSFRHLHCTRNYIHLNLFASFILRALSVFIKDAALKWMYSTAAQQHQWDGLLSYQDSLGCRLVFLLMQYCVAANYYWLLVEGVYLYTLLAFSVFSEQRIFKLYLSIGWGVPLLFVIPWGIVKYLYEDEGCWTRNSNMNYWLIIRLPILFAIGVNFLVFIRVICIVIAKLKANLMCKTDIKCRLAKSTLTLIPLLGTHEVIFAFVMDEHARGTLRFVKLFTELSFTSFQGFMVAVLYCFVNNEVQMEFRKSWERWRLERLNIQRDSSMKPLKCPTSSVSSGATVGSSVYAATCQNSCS


How the values were obtained:
Test in all cases: cell-based or functional assay
human glucagon receptor [1] = molecular target: T4, human glucagon receptor (human, UniProt P47871 26-477)
T4 sequence (P47871 26-477): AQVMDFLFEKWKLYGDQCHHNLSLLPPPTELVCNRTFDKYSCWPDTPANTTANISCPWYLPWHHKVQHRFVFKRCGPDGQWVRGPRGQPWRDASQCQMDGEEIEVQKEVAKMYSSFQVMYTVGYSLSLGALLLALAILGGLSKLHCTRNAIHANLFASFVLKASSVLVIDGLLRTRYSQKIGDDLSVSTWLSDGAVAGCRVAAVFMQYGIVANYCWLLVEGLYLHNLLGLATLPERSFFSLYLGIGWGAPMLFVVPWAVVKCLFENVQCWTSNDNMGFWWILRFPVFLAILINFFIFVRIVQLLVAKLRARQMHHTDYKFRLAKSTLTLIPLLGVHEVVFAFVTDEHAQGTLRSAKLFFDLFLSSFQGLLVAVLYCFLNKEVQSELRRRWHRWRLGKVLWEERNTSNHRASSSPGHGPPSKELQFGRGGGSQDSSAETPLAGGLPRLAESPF

human GLP-1 receptor [2] = molecular target: T5, human GLP-1 receptor (human, UniProt P43220 24-463)
[3] = molecular target: T1, human glucose-dependent insulinotropic …
human glucagon receptor [4] = molecular target: T4, human glucagon receptor; remark: listed apart in the source
human GLP-1 receptor [5] = molecular target: T5, human GLP-1 receptor; remark: listed apart in the source
[6] = molecular target: T1, human glucose-dependent insulinotropic …; remark: listed apart in the source
human glucagon receptor [7] = molecular target: T4, human glucagon receptor; remark: listed apart in the source
human GLP-1 receptor [8] = molecular target: T5, human GLP-1 receptor; remark: listed apart in the source
mouse GLP-1 receptor = molecular target: T2, mouse GLP-1 receptor
mouse glucagon receptor = mouse glucagon receptor (mouse, UniProt Q61606 27-485)
Chain of mouse glucagon receptor (Q61606 27-485): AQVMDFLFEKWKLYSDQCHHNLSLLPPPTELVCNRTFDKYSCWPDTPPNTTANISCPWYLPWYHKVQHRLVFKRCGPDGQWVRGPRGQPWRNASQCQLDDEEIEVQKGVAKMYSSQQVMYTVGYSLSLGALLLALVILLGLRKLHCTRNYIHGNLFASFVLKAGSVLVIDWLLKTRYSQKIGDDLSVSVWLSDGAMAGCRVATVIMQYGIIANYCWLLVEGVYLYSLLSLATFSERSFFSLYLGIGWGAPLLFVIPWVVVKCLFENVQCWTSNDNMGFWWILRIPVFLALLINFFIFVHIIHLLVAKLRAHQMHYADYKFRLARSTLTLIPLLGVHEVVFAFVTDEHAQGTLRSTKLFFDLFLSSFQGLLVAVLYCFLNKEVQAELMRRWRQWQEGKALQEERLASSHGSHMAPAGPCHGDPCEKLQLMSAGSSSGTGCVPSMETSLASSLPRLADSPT

rat GLP-1 receptor = molecular target: T3, rat GLP-1 receptor
rat glucagon receptor = rat glucagon receptor (rat, UniProt P30082 27-485)
Chain of rat glucagon receptor (P30082 27-485): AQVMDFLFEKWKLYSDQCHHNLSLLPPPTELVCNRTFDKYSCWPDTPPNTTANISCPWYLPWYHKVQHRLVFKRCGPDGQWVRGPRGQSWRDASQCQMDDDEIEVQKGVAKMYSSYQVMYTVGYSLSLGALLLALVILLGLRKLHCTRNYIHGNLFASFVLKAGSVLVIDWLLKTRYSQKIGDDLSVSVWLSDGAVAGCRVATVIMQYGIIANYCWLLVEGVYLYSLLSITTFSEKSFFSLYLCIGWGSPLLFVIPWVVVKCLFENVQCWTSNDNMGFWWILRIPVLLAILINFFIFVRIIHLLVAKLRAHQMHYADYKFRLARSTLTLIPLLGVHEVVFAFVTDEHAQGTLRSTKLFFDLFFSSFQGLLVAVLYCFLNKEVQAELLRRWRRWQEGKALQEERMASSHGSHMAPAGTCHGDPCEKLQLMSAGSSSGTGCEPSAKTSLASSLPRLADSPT

human glucagon receptor [9] = molecular target: T4, human glucagon receptor; remark: listed apart in the source
human GLP-1 receptor [10] = molecular target: T5, human GLP-1 receptor; remark: listed apart in the source

| cAMP EC50 (assay 1) (human glucagon receptor [1]) [nM] | cAMP EC50 (assay 1) (human GLP-1 receptor [2]) [nM] | cAMP EC50 (assay 1) [3] [nM] | cAMP EC50 (assay 1) (human glucagon receptor [4]) [nM] | cAMP EC50 (assay 1) (human GLP-1 receptor [5]) [nM] | cAMP EC50 (assay 1) [6] [nM] | cAMP EC50 (assay 2, 4.4% human serum albumin) (human glucagon receptor [7]) [nM] | cAMP EC50 (assay 2, 4.4% human serum albumin) (human GLP-1 receptor [8]) [nM] | cAMP EC50 (assay 2, 3.2% mouse serum albumin) (mouse GLP-1 receptor) [nM] | cAMP EC50 (assay 2, 3.2% mouse serum albumin) (mouse glucagon receptor) [nM] | cAMP EC50 (assay 2, 3.2% rat serum albumin) (rat GLP-1 receptor) [nM] | cAMP EC50 (assay 2, 3.2% rat serum albumin) (rat glucagon receptor) [nM] | cAMP EC50 (assay 1) (human glucagon receptor [9]) [nM] | cAMP EC50 (assay 1) (human GLP-1 receptor [10]) [nM] | Binder |
| --- | --- | --- | --- | --- | --- | --- | --- | --- | --- | --- | --- | --- | --- | --- |
| 0.000966 | 0.00942 | 2.77 | – | – | – | – | – | – | – | – | – | – | – | HSQGTFTSDK([γGlu-Palmitoyl])SRYLDSERARDFVAWLEAGG-NH2 (N-terminus assumed; SMILES CCCCCCCCCCCCCCCC(=O)N[C@@H](CCC(=O)NCCCC[C@H](NC(=O)[C@H](CC(=O)O)NC(=O)[C@H](CO)NC(=O)[C@@H](NC(=O)[C@H](Cc1ccccc1)NC(=O)[C@@H](NC(=O)CNC(=O)[C@H](CCC(N)=O)NC(=O)[C@H](CO)NC(=O)[C@@H](N)Cc1c[nH]cn1)[C@@H](C)O)[C@@H](C)O)C(=O)N[C@@H](CO)C(=O)N[C@@H](CCCNC(=N)N)C(=O)N[C@@H](Cc1ccc(O)cc1)C(=O)N[C@@H](CC(C)C)C(=O)N[C@@H](CC(=O)O)C(=O)N[C@@H](CO)C(=O)N[C@@H](CCC(=O)O)C(=O)N[C@@H](CCCNC(=N)N)C(=O)N[C@@H](C)C(=O)N[C@@H](CCCNC(=N)N)C(=O)N[C@@H](CC(=O)O)C(=O)N[C@@H](Cc1ccccc1)C(=O)N[C@H](C(=O)N[C@@H](C)C(=O)N[C@@H](Cc1c[nH]c2ccccc12)C(=O)N[C@@H](CC(C)C)C(=O)N[C@@H](CCC(=O)O)C(=O)N[C@@H](C)C(=O)NCC(=O)NCC(N)=O)C(C)C)C(=O)O) [g848] |
| – | – | – | 0.00817 | 0.011 | 2.7 | 0.764 | 0.316 | 0.13 | 0.947 | 0.019 | 14.1 | – | – | HSQGTFTSDKSKYLEGQAAKEFIAWLEKGR (X10 = K(gE-palm); C-terminal amide) [G812] |
| – | – | – | – | – | – | – | – | – | – | – | – | 0.0178 | 0.13 | HSQGTFTSDYSKK([γGlu-Palmitoyl])LDSERARDFVAWLVAGG-OH (N-terminus assumed; SMILES CCCCCCCCCCCCCCCC(=O)N[C@@H](CCC(=O)NCCCC[C@H](NC(=O)[C@H](CCCCN)NC(=O)[C@H](CO)NC(=O)[C@H](Cc1ccc(O)cc1)NC(=O)[C@H](CC(=O)O)NC(=O)[C@H](CO)NC(=O)[C@@H](NC(=O)[C@H](Cc1ccccc1)NC(=O)[C@@H](NC(=O)CNC(=O)[C@H](CCC(N)=O)NC(=O)[C@H](CO)NC(=O)[C@@H](N)Cc1c[nH]cn1)[C@@H](C)O)[C@@H](C)O)C(=O)N[C@@H](CC(C)C)C(=O)N[C@@H](CC(=O)O)C(=O)N[C@@H](CO)C(=O)N[C@@H](CCC(=O)O)C(=O)N[C@@H](CCCNC(=N)N)C(=O)N[C@@H](C)C(=O)N[C@@H](CCCNC(=N)N)C(=O)N[C@@H](CC(=O)O)C(=O)N[C@@H](Cc1ccccc1)C(=O)N[C@H](C(=O)N[C@@H](C)C(=O)N[C@@H](Cc1c[nH]c2ccccc12)C(=O)N[C@@H](CC(C)C)C(=O)N[C@H](C(=O)N[C@@H](C)C(=O)NCC(=O)NCC(=O)O)C(C)C)C(C)C)C(=O)O) [G931] |
| 0.00181 | 0.014 | 17.4 | 0.00176 | 0.013 | 14 | 0.053 | 0.14 | 0.13 | 0.034 | 0.023 | 2 | – | – | HSQGTFTSDKSSYLDSRRARDFVAWLEAGG (X10 = K(gE-palm); C-terminal amide) [G796] |
